How the values were obtained:
[1] = target: T1, human PTK-7 on cells (OV90-PTK-7, NCI-H446, OVCAR-3) (human, UniProt Q13308 31-1070); experiment: cell-based or functional assay
T1 sequence: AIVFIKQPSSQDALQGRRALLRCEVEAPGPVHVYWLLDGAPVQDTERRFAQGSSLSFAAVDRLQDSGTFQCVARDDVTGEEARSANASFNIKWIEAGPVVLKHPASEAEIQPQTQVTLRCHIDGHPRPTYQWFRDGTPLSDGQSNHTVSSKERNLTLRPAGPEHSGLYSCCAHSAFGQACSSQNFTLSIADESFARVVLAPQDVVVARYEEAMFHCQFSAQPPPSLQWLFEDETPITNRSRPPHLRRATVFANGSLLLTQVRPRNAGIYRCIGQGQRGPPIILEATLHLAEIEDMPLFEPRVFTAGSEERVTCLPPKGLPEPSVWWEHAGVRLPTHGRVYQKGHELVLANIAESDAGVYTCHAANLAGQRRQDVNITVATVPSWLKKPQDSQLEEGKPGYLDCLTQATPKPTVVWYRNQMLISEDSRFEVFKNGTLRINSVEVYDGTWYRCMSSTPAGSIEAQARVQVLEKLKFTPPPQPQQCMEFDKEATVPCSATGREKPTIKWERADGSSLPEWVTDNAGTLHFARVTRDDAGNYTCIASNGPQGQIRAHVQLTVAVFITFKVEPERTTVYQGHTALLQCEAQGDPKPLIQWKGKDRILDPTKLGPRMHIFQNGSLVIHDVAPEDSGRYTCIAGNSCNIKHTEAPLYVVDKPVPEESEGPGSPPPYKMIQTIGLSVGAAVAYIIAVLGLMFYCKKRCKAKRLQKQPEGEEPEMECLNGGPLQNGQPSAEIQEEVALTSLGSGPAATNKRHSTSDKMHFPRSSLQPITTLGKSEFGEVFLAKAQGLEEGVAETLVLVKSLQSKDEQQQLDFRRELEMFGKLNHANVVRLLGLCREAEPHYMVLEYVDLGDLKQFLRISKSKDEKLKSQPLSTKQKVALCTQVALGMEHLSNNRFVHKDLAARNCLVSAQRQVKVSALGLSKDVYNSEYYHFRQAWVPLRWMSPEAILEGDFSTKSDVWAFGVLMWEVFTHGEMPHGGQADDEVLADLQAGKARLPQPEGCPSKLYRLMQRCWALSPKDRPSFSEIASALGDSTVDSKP

[2] = target: T2, recombinant human PTK7 (Acro Biosystems Cat. No. PT7-H52H3) (human, UniProt Q13308 31-704); experiment: SPR, Biacore 8K+, ADC captured by anti-human Fc, human PTK7 as analyte, 37 C, 1:1 model
T2 construct: Bought recombinant protein; also called human PTK7 analyte
T2 sequence: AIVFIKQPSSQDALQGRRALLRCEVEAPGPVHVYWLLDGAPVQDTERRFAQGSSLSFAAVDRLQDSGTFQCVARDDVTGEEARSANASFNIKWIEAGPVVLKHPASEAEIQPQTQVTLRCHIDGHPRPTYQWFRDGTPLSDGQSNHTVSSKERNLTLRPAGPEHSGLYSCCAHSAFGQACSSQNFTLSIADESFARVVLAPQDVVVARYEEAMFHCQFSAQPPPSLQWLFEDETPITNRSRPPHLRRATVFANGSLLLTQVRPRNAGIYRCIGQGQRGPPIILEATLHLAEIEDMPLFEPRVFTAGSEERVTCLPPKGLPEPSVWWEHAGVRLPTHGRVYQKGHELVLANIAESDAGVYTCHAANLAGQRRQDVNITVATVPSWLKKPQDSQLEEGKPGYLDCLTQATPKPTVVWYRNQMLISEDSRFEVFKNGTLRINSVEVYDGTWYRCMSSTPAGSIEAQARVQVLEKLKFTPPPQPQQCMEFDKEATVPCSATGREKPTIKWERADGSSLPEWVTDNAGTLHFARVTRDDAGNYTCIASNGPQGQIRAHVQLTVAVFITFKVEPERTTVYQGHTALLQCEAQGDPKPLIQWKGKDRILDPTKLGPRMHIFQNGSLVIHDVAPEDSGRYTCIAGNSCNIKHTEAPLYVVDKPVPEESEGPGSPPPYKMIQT
Method: A Biacore 8K+ instrument (Cytiva, Marlborough, MA) was used to determine kinetics and affinity parameters for the binding interactions of ADCs binding to recombinant human PTK7 (Acro Biosystems Cat. No. PT7-H52H3, Newark, DE).
In each analysis cycle, a different ADC was captured on flow cell 2 of each channel by injecting a 5 μg/mL solution at 10 μL/min for 2 minutes. After capture, the same analyte was injected on flow cells 1 and 2 in all 8 channels for 2 minutes at 30 μL/min and dissociation was monitored for 10 minutes. After dissociation, all surfaces were regenerated with three consecutive 1-minute injections of 75 mM phosphoric acid at 10 μL/min. ADC capture and analyte cycles were repeated to obtain human PTK7 analyte binding of each ADC at analyte concentrations of 0, 2.47, 7.41, 22.2, 66.7, 200, and 600 nMs.
Sensorgram data were reference subtracted and blank subtracted, then globally fit with the default 1:1 binding model in Biacore Insight Evaluation Software v3.0.12.15655, as shown in Table 4.

Kd [2]: 101 nM | koff [2]: 0.0372 s⁻¹ | kon [2]: 368000 M⁻¹ s⁻¹
B1: Ab4-PSAR10-VA-exatecan (other)
heavy: EVQLVESGGGLVKPGGSLRLSCAASGFTFSSYSMNWVRQAPGKGLEWVSSIDSSSSFIYYADSVKGRFTISRDNAKNSLYLQMNSLRAEDTAVYYCARGTGLFDFWGQGTLVTVSSASTKGPSVFPLAPSSKSTSGGTAALGCLVKDYFPEPVTVSWNSGALTSGVHTFPAVLQSSGLYSLSSVVTVPSSSLGTQTYICNVNHKPSNTKVDKRVEPKSCDKTHTCPPCPAPEAAGGPSVFLFPPKPKDTLMISRTPEVTCVVVSVSHEDPEVKFNWYVDGVEVHNAKTKPREEQYNSTYRVVSVLTVLHQDWLNGKEYKCKVSNKALPAPIEKTISKAKGQPREPQVYTLPPSREEMTKNQVSLTCLVKGFYPSDIAVEWESNGQPENNYKTTPPVLDSDGSFFLYSKLTVDKSRWQQGNVFSCSVMHEALHNHYTQKSLSLSPGK
light: EIVLTQSPGTLSLSPGERATLSCRASQSFSSSYLAWYQQKPGQAPRLLIYGASSRATGIPDRFSGSGSGTDFTLTISRLEPEDFAVYYCQQYGRTPWTFGQGTKVEIKRTVAAPSVFIFPPSDEQLKSGTASVVCLLNNFYPREAKVQWKVDNALQSGNSQESVTEQDSKDSTYSLSSTLTLSKADYEKHKVYACEVTHQGLSSPVTKSFNRGEC
modifications: PSAR10-VA-exatecan linker-payload (Formula XV) on cysteine thiols after full reduction of the antibody (DAR 8 procedure); positions not stated for this ADC
notes: Antibody-drug conjugate of Ab4; also called Ab4-VA-Exatecan
Cytotoxicity IC50, OVCAR-3 cells (CellTiter-Glo, 7 days) [1]: 2.02 nM

From patent publication US20250332277A1 (Eli Lilly, published 2025)
